Experimental findings from paper PMC4922627 are described below.

The target of test [1] is TEV-cleaved ICP35 (White spot syndrome virus). Nature of the test: SEC; HiLoad 16/600 Superdex 200; 20 mM Tris-HCl pH 8.0, 200 mM NaCl, 5 mM MgSO4; peak fractions checked by SDS-PAGE. A general note: SEC sorts molecules by how far they enter the pores of the column.
Test [2] shares this target. As to the kind of experiment: SDS-PAGE without boiling; purified protein loaded on 12% SDS-PAGE with and without boiling, Coomassie stain and Western blot; TEV-cleaved ICP35 concentrated to 10 mg/ml to induce oligomerization. A general note: A western blot detects proteins with antibodies after separation by electrophoresis.

What is called stoichiometry N is the number of molecules, sites or subunits per partner or assembly. For the substance TEV-cleaved ICP35 (domain or fragment), the stoichiometry N in test [1] and in test [2] was 2 throughout.
